From PMC10917881, “Biochemical characterization of L-asparaginase isoforms from Rhizobium etli—the boosting effect of zinc” (Frontiers in Chemistry, 2024)

Legend:
[1] = target: Rhizobium etli L-asparaginase ReAIV (constitutive, thermostable), wild type (Rhizobium etli); test: mass photometry; Refeyn One mass photometer; protein diluted to 20-50 nM; buffers 50 mM Tris-HCl pH 8.0 or 30 mM carbonate pH 9.0; absence or presence of Zn2+ and/or Mg2+; dimer to monomers
[2] = target: Rhizobium etli L-asparaginase ReAV (inducible, thermolabile), wild type (Rhizobium etli); test: as above

stoichiometry N [1] | stoichiometry N [2] | Substance
2 | – | Rhizobium etli L-asparaginase ReAIV (constitutive, thermostable), wild type (enzyme)
– | 2 | Rhizobium etli L-asparaginase ReAV (inducible, thermolabile), wild type (enzyme)
